Data on 47 molecules can be found in PMC314469, “Protein Interaction Networks by Proteome Peptide Scanning” (PLoS Biology, 2004).

The labels stand for the following.
T1: Abp1 SH3 (ABP1_YEAST), P15891
T1 chain: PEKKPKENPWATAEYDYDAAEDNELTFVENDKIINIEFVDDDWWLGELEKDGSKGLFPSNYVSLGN

T2: Boi1 SH3 (BOI1_YEAST), P38041
T2 chain: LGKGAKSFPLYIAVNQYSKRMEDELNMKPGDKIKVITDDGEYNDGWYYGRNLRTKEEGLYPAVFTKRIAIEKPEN

T3: Rvs167 SH3 (RV167_YEAST), P39743
T3 chain: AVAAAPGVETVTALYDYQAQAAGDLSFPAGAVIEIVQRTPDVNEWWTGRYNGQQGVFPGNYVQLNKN

T4: Yhr016c SH3 (YSC84_YEAST), P32793
T4 chain: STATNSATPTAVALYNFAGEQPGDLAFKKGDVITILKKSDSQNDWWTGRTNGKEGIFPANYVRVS

T5: Yfr024 SH3 (LSB3_YEAST), P43603
T5 chain: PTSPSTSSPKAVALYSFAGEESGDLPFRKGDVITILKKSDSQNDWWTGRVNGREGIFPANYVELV

T6: Boi2 SH3 (BOI2_YEAST), P39969
T6 chain: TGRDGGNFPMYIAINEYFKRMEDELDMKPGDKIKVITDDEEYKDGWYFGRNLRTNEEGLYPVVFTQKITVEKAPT

B1: YBR182C 407-419 (peptide)
chain: NKTFFLKPPIGRP
B2: YGL048C 295-307 (peptide)
chain: NRLDILDPALLRP
B3: YLL034C 677-689 (peptide)
chain: NRPDMIDPAMLRP
B4: YKL145W 356-368 (peptide)
chain: NRPNTLDPALLRP
B5: YNL080C 288-301 (peptide)
chain: NRPSVSHSQSPKRP
B6: YER109C 669-681 (peptide)
chain: NRNTLSTPEEKKP
B7: YOR188W 1010-1022 (peptide)
chain: NNPPQMVPKGVRP
B8: YNL034W 542-555 (peptide)
chain: NSAPQLTVPEPSKP
B9: YPR171W 329-342 (peptide)
chain: NLTTTSKPSLPEKP
B10: YLR201C 20-32 (peptide)
chain: NPIEHVKPIHIKP
B11: YKR011C 56-68 (peptide)
chain: NLKIDSAPAYLKP
B12: YBR015C 261-274 (peptide)
chain: NLLLLDADNFPIKP
B13: YDR479C 205-217 (peptide)
chain: NQTPAQGPPLRRP
B14: YML020W 157-170 (peptide)
chain: NPAPLTNTYIPYKP
B15: YAL040C 532-545 (peptide)
chain: NLSVRSKRLFPVRP
B16: YBL084C 527-540 (peptide)
chain: NLANGLMDTMPNKP
B17: YBR033W 382-395 (peptide)
chain: NKSKFTDMLDPEKP
B18: YOR259C 328-340 (peptide)
chain: NRPDTLDPALLRP
B19: YDL126C 634-646 (peptide)
chain: NRPDQIDPAILRP
B20: YPL070W 456-468 (peptide)
chain: NLGDIVTPTIQRP
B21: YDR527W 27-39 (peptide)
chain: NNSGTGFPELYKP
B22: YDR394W 319-331 (peptide)
chain: NRADTLDPALLRP
B23: YLR397C 390-402 (peptide)
chain: NRPNSVDPALRRP
B24: YIL053W 16-28 (peptide)
chain: NIQTIAMPLTTKP
B25: YNL034W 381-393 (peptide)
chain: NPSNKSIPFWKRP
B26: YMR020W 267-280 (peptide)
chain: NLRGRIEFQPPLKP
B27: YDL240W 709-722 (peptide)
chain: NRMKIMMSMEPKKP
B28: YPL075W 339-351 (peptide)
chain: NLVQSIDPNHSKP
B29: YOL148C 556-568 (peptide)
chain: NNNNLDKPKVKRP
B30: YMR067C 315-328 (peptide)
chain: NMPFTLNQSHPFKP
B31: YML102W 307-319 (peptide)
chain: NRPAIRIPSLKKP
B32: YDL007W 329-341 (peptide)
chain: NKIETLDPALIRP
B33: YKL126W 329-341 (peptide)
chain: NISIDYKPSRNKP
B34: YMR255W 67-79 (peptide)
chain: NKIKETLPREKKP
B35: YMR104C 326-338 (peptide)
chain: NITVDYKPSKNKP
B36: YFL049W 597-609 (peptide)
chain: NPVVATDPVAAKP
B37: YML035C 220-233 (peptide)
chain: NKPGWVVYPPPPKP
B38: YPL093W 23-35 (peptide)
chain: NRTQRKTPTVIRP
B39: YCL014W 1345-1357 (peptide)
chain: NNPSNSIPKIEKP
B40: YDR485C 329-342 (peptide)
chain: NKRDKKKKKYPRKP
B41: YJL087C 616-628 (peptide)
chain: NNNQQKTPKLIKP
B42: YGR270W 562-574 (peptide)
chain: NRPDAVDPALRRP
B43: YAL042W 215-228 (peptide)
chain: NRIQGNLHFAPGKP
B44: YJR140C 1438-1450 (peptide)
chain: NLVNIWKPDFERP
B45: YNL106C 1166-1179 (peptide)
chain: NPELEKLSVHPLKP
B46: YGL143C 142-154 (peptide)
chain: NKLLPPHPFADKP
B47: YNR017W 123-136 (peptide)
chain: NIPPNSPGKLQLNT

The target in one experiment is T1, Abp1 SH3 (ABP1_YEAST), P15891. Kind of experiment: SPOT array.
In the case of B1, the normalised SPOT signal, Boehringer light units (BLU); mean over the file's lines of this peptide was 7480. The same measure, in the same setting: to B2 belongs 101; to B3, 19.2; to B4, 89.2. Same read-out and setting: the figure for B5 is 704; for B6 it is 201; for B7 it is 1040. Still for that read-out and setting: the figure for B8 is 89.3.

Take B9: the normalised SPOT signal, Boehringer light units (BLU); mean over the file's lines of this peptide was 610. In the case of B10, the normalised SPOT signal, Boehringer light units (BLU); mean over the file's lines of this peptide came out at 66.7. Molecule B11 displayed a normalised SPOT signal, Boehringer light units (BLU); mean over the file's lines of this peptide of 112. B12 registered a normalised SPOT signal, Boehringer light units (BLU); mean over the file's lines of this peptide of 169. On the same count and under the same terms, to B13 belongs 8650. On the same count and under the same terms, the figure for B14 is 150; for B15 it is 326; for B16 it is 33.5. B17 yielded a normalised SPOT signal, Boehringer light units (BLU); mean over the file's lines of this peptide of 160.

Take B18: the normalised SPOT signal, Boehringer light units (BLU); mean over the file's lines of this peptide was found to be 0. On the same count and under the same terms, the figure for B19 is 45.4; for B20 it is 45.9. Still for that read-out and setting: to B21 belongs 24.7; to B22, 87.6. In the case of B23, the normalised SPOT signal, Boehringer light units (BLU); mean over the file's lines of this peptide was determined as 225. Same read-out and setting: the figure for B24 is 111; for B25 it is 342.

Molecule B26 registered a normalised SPOT signal, Boehringer light units (BLU); mean over the file's lines of this peptide of 235. Same read-out and setting: the figure for B27 is 810.

B28 yielded a normalised SPOT signal, Boehringer light units (BLU); mean over the file's lines of this peptide of 169.

Take B29: the normalised SPOT signal, Boehringer light units (BLU); mean over the file's lines of this peptide is 8720. On the same count and under the same terms, the figure for B30 is 140. The same measure, in the same setting: the figure for B31 is 5260; for B32 it is 270; for B33 it is 181. Still for that read-out and setting: the figure for B34 is 179; for B35 it is 108; for B36 it is 79. As for B37, the normalised SPOT signal, Boehringer light units (BLU); mean over the file's lines of this peptide amounted to 180. On the same count and under the same terms, the figure for B38 is 330; for B39 it is 108. In turn, B40 displayed a normalised SPOT signal, Boehringer light units (BLU); mean over the file's lines of this peptide of 0. As for B41, the normalised SPOT signal, Boehringer light units (BLU); mean over the file's lines of this peptide came to 48.3. On the same count and under the same terms, to B42 belongs 53.9. As for B43, the normalised SPOT signal, Boehringer light units (BLU); mean over the file's lines of this peptide is 253. On the same count and under the same terms, the figure for B44 is 130. Still for that read-out and setting: to B45 belongs 66.1; to B46, 69.9.

The next experiment has as its target T2, Boi1 SH3 (BOI1_YEAST), P38041. Briefly: SPOT array.
For B47, the normalised SPOT signal, Boehringer light units (BLU); mean over the file's lines of this peptide was found to be 37.5.

The target of another experiment is T3, Rvs167 SH3 (RV167_YEAST), P39743. Briefly: SPOT array.
Molecule B47 registered a normalised SPOT signal, Boehringer light units (BLU); mean over the file's lines of this peptide of 0.

A further experiment addresses T4, Yhr016c SH3 (YSC84_YEAST), P32793. Briefly: SPOT array.
In turn, B47 returned a normalised SPOT signal, Boehringer light units (BLU); mean over the file's lines of this peptide of 77.6.

A further experiment deals with T5, Yfr024 SH3 (LSB3_YEAST), P43603. Briefly: SPOT array.
B47 yielded a normalised SPOT signal, Boehringer light units (BLU); mean over the file's lines of this peptide of 84.4.

Another experiment deals with T6, Boi2 SH3 (BOI2_YEAST), P39969. Kind of experiment: SPOT array.
On to B47, for which the normalised SPOT signal, Boehringer light units (BLU); mean over the file's lines of this peptide worked out at 93.6.
